According to the DeepSol protein solubility set:

Test: soluble on expression in E. coli; label from the status in PepcDB or PDB records

Sequence | soluble on expression in E. coli
MAFANFRRILRLSTFEKRKSREYEHVRRDLDPNEVWEIVGELGDGAFGKVYKAKNKETGALAAAKVIETKSEEELEDYIVEIEILATCDHPYIVKLLGAYYHDGKLWIMIEFCPGGAVDAIMLELDRGLTEPQIQVVCRQMLEALNFLHSKRIIHRDLKAGNVLMTLEGDIRLADFGVSAKNLKTLQKRDSFIGTPYWMAPEVVMCETMKDTPYDYKADIWSLGITLIEMAQIEPPHHELNPMRVLLKIAKSDPPTLLTPSKWSVEFRDFLKIALDKNPETRPSAAQLLEHPFVSSITSNKALRELVAEAKAEVMEEIEDGRDEGEEEDAVDAASTLENHTQNSSEVSPPSLNADKPLEESPSTPLAPSQSQDSVNEPCSQPSGDRSLQTTSPPVVAPGNENGLAVPVPLRKSRPVSMDARIQVAQEKQVAEQGGDLSPAANRSQKASQSRPNSSALETLGGEKLANGSLEPPAQAAPGPSKRDSDCSSLCTSESMDYGTNLSTDLSLNKEMGSLSIKDPKLYKKTLKRTRKFVVDGVEVSITTSKIISEDEKKDEEMRFLRRQELRELRLLQKEEHRNQTQLSNKHELQLEQMHKRFEQEINAKKKFFDTELENLERQQKQQVEKMEQDHAVRRREEARRIRLEQDRDYTRFQEQLKLMKKEVKNEVEKLPRQQRKESMKQKMEEHTQKKQLLDRDFVAKQKEDLELAMKRLTTDNRREICDKERECLMKKQELLRDREAALWEMEEHQLQERHQLVKQQLKDQYFLQRHELLRKHEKEREQMQRYNQRMIEQLKVRQQQEKARLPKIQRSEGKTRMAMYKKSLHINGGGSAAEQREKIKQFSQQEEKRQKSERLQQQQKHENQMRDMLAQCESNMSELQQLQNEKCHLLVEHETQKLKALDESHNQNLKEWRDKLRPRKKALEEDLNQKKREQEMFFKLSEEAECPNPSTPSKAAKFFPYSSADAS | soluble
MAFFRLAALLWLGMLMSPVQAQSLSLQVLDAVVKDAVLADAEVQLGQASGRTDAQGRVTLEAADSPGSELLIRKLGYADLRAKCPCQGLSYAMSPVLKDPQSLRVVLSWSAPGEDLDAHLSYPHRLLYYATGTGPGARMNVDSTDSRGPETLTIEQPVPGDAYVYAVHDFTNGNNPESLRLGRSQAQVFVYKGPTLMRSYRVPQNRQGNLWVVFRLTANGQLQDIDRVLQGNEEVESRMSDLDPLLLANGKPIDEVLARDEGPVDAKSLNQKGEASYRKGDVGSAGIYYREAIELDPGFAQAYSNLALSNRKNSRPDEAVAADRQAIALASGPSAPTIRASAYYDMGRIYEDAGQLVTALEHYRKAREQKANPVYDKAIERLQNRLEHHHHHH | not soluble
MAFKGYPVIDKDGNIYAGNQDGQLYAYTSTGSLKWTFPLNGFSSSSPAIDHNGNIYIGSGSGELFSISKNGDMNWSFYTDGPVRTAPLIDAKGTVYFGSDDMKVYAADANGNELWSYQTDSNVVSSPQLAEDGTLEHHHHHH | not soluble
MAFNIESLLEKKSNPVEEGNDFEEENDSEKNGEEDEEEEEKNVIDGWTNMATSQLAMFAIANDLRTPTLVELQMLLGVSARKHDYKRSRKSVCERKPRQAYSARQLDRLETEFQTDKYLSVNKRIQLSQTLNLTETQIKTWFQNRRTKWKKQLTSSIRQMVKDAPTSTSVGVPFQSLLTPPTPPTTLACHVNSLFACEQ | not soluble
MAGDPMGGAGLDNAQNVRNQTQNQTKPIHVSDRNEAFNRHNENEQFGYVRYQKEQFDGEQQKTPVMNREETAHMISSLTVQLPHIQDAATLVTDREALVVYKTDSKNRELTADQVKKTAASVIPRYYHVYISDNPNHMQSVENYSNLGSGSRDIREIMSGTIQEMKTSPQGSPVSENENANGETRQDMKIDRNDKNARLEHHHHHH | soluble
MAGDPMGNNNSTKESTHDNHSDSSTHEEMDHSGSADVPEGLQESKNPKYKVGSQVIINTSHMKGMKGAEATVTGAYDTTAYVVSYTPTNGGQRVDHHKWVIQEEIKDAGDKTLQPGDQVILEASHMKGMKGATAEIDSAEKTTVYMVDYTSTTSGEKVKNHKWVTEDELSAKLEHHHHHH | soluble
MAGDPMKKLVTATTLTAGIGTALVGQAHHADAAENYTNYNNYNYNTTQTTTTTTTTTTTSSISHSGNLYTAGQCTWYVYDKVGGEIGSTWGNANNWAAAAQGAGFTVNHTPSKGAILQSSEGPFGHVAYVESVNSDGSVTISEMNYSGGPFSVSSRTISASEAGNYNYIHILEHHHHHH | not soluble
